Legend:
HIV-1 NL4-3 = test: Inhibition of HIV-1 NL4-3 replication in peripheral blood lymphocytes (p24 antigen ELISA); format: cell-based; settings: FIG. 2, similar to Enfuvirtide (T20)
[1] = system: HIV-1 Env SF162 mediated fusion of HeLa effector cells with HEK293-CCR5 target cells expressing human CD4; format: cell-based; settings: β-Gal activity at 570 nm after 2.5 h at 37° C.; FIG. 4
[2] = system: HIV-1 virus, three clades (European, Indian and African origin); settings: three clades of HIV-1; due to interference in entry of HIV-1 to host cells; cited from earlier work

Row | Molecule | EC50 (HIV-1 NL4-3) [nM] | inhibition of cell to cell fusion compared to positive control Enfuvirtide (T20) [1] | growth inhibition of HIV-1 [2] [%]
1 | MPT63 (protein, UniProt P9WIP1 30-159, looked up) Immunogenic protein MPT63: AYPITGKLGSELTMTDTVGQVVLGWKVSDLKSSTAVIPGYPVAGQVWEATATVNAIRGSVTPAVSQFNARTADGINYRVLWQAAGPDTISGATIPQGEQSTGKIYFDVTGPSPTIVAMNNGMEDLLIWEP | 0.01 | more inhibition of cell to cell fusion | 
2 | azurin: 128 amino acid P. aeruginosa protein with anticancer, anti-HIV-1 and antiparasitic activity (protein, UniProt P00282 21-148, looked up) Azurin: AECSVDIQGNDQMQFNTNAITVDKSCKQFTVNLSHPGNLPKNVMGHNWVLSTAADMQGVVTDGMASGLDKDYLKPDDSRVIAHTKLIGSGEKDSVTFDVSKLKEGEQYMFFCTFPGHSALMKGTLTLK |  |  | ≥ 90

From patent US20140011735A1, “ANTIVIRAL COMPOSITION” (AMRITA THERAPEUTICS LIMITED, priority 2011, published 2014)
